# Reference: US20250188136A1, “AV3 MUTANT POLYPEPTIDES FOR PEST CONTROL” (Vestaron Corporation, priority 2021, published 2025)
# Several values for one entry are separate records, joined by “and”; a condition that tells them apart may be missing. Equal values may be shown once. Entries after “also recorded” stand apart in the source; their conditions may differ. Ends that are not written are not given here.
# Key:
# [1] = DASbox small-scale fermentation, degradation by HPLC and LC/MS; format: physicochemical; conditions: DASbox fed batch fermentation runs
# Description: DASbox® is a parallel bioreactor system (Eppendorf, 175 Freshwater Blvd, Enfield, CT 06082, USA). The DASbox system used here contains 8 fermentation vessels with 250 mL volume capacity, allowing 8 small scale fermentation runs simultaneously. The DASbox fermentation runs were performed according to the manufacturer's instructions, and using the fermentation conditions described herein.
# The screening of the Av3b mutants was conducted using a fed batch process in aerobic bioreactor. Reactors were initially filled to ˜45% capacity with a rich culture media containing 5-20 g/L of a carbon source such as glucose, sorbitol, or lactose, 5-20 g/L phosphoric acid, 0.1-1.5 g/L Calcium sulfate, 5-15 g/L Potassium sulfate, 0.5-10 g/L Magnesium sulfate heptahydrate, 1-5 g/L potassium hydroxide, and 10-60 g/L of corn steep liquor. The temperature of the reactor was maintained between 25-35° C. for the duration of the fermentation. The pH was held constant between 4-5.5 with the addition of 15% ammonium hydroxide. Dissolved oxygen was held constant by sparging air between 0.5-1.5 volume/volume/min and by increasing agitation to maintain a set point of 10-30%.
# Inoculation of the reactor was from an overnight seed culture containing 5-40 g/L of a carbon source such as glucose, sorbitol, or lactose, and 5-40 g/L of corn steep liquor. Inoculation percentage ranged from 5-20% of initial fill volume. Once inoculated, the reactor was fed with a 70% solution of the selected carbon source until the reactor was filled and/or desired supernatant peptide concentration was achieved, approximately 96-140 hours and 0.8-1.2 g/L, respectively.
# Helicoverpa zea = experiment: Lepidoptera injection assay, corn earworm (CEW); format: in vivo; conditions: for KD50 CEW: third instar larva, 2 μL injection, scored at 24-hours post-injection
# Description: (§1) An injection assay was performed on Helicoverpa zea (corn earworm or “CEW”) and Spodoptera frugiperda (fall armyworm or “FAW”). Injections comprised a given Av3b mutant peptide combined with water to arrive at the planned dose. The Av3b mutants included Av3bM24; Av3bM165; Av3bM103; and Av3bM170. Av3b was used as a control.
# (§2) Insects were reared on an artificial diet prepared from General Purpose Lepidoptera diet (Frontier Scientific, Newark, DE 19713, product No. F9772) according to the manufacturer's instructions. To perform the insect injection bioassay, 5 mL of hot diet was dispensed into the well of a rearing tray (Bio-Service Inc., Bio-RT-32), with 8 wells per injection treatment. The hot diet was then allowed to cool and solidify. Next, third instar larva were incubated on ice in order to immobilize them. Injections were prepared on a hand-microapplicator with injection solution (>100 μL) in 1-cc all-glass syringe having a 30 gauge straight needle. Air bubbles were removed from the syringe, and the syringe was set it up on the microapplicator. Injection volume was adjusted in the microapplicator at 2 μL.
# (§3) To inject the larva, the insects were picked up and positioned close to the injection needle. The needle was allowed to penetrate the cuticle of the third pro-leg of the larva. The injection knob of the microapplicator was then rotated to inject a 2 μL solution into hemolymph from the third pro-leg. After injection the larva maintained on the needle for a few seconds to make sure the injected solution was absorbed. Then, the larva were gently removed from the needle and placed into the wells of prepared tray, along with 5 mL of solidified diet per well. Finally, the tray was sealed with vent covers.
# (§4) Injected larva were incubated at 28° C. in an insect incubator, and scored at 24-hours post-injection based on their condition. Insect conditions were categorized as follows: alive (walking, eating, normal behavior); affected (showing toxic symptoms, such as tremors, writhing, unbalanced gait, or a combination thereof), knockdown (paralyzed albeit able to move with gentle poke); and dead (unmoving, discoloration, or a combination thereof).
# [2] = Thermo-stability at 54° C. in pH 4.0 solution; format: physicochemical; conditions: for peptide change on day 14: pH 4.0, 54° C., HPLC peak area, + mass increase, − mass loss; for thermo-stability at 54° C.: pH 4.0 solution, up to 14 days
# Description: A thermo-stability study was performed for Av3b, Av3bM24, Av3bM165, Av3bM103, and Av3bM170 in a pH 4.0 solution at 54° C. for 0, 3, 7, 10, 12, and 14 days, with a caffeine internal control to cancel variation from evaporation. Samples of 1 mL were prepared in 1.5 mL microtube with sodium acetate buffer (NaOAc) at pH 4.0, containing 0.1 μg/μL of peptide, and 0.025 μg/μL of caffeine. The samples were incubated at 54° C. in a dry mixer. At 0, 3, 7, 10, 12, and 14 days, 20 μL of each sample was analyzed via analytic rpHPLC system to evaluate peptide loss. Each sample contained a fixed amount caffeine, which was used to compensate the peptide HPLC UV absorbance peak change due to volume change by evaporation. FIG. 68.
# [3] = Proteolytic resistance of Av3b mutants during production-strain fermentation (rpHPLC); format: physicochemical; conditions: for degradation product during fermentation (HPLC): production strain fermentation at pH 6.5, rpHPLC; for Degradation?: mutant strain fermentation at pH 6.5, 140 hours, rpHPLC
# Description: The mutants in the table below were evaluated for stability in fermentation beer. Fermentation conditions and HPLC analysis were performed as described above. The mutant production strains were generated using YCT306 K. lactis strain. The production of mutants was performed as described in Example 2; fermentation conditions were performed using the same fermentation process described above regarding the Av3b production strain, with pH control at pH 6.5. […] To identify the mutant with proteolytic resistance, the mutant strains were grown under the same fermentation conditions as Av3b, and samples were taken throughout the fermentation process. The samples taken at 140 hour of fermentation process were analyzed in rpHPLC.
# [4] = Stability of purified peptide spiked into Av3b fermentation beer (rpHPLC); format: physicochemical; conditions: for peptide remaining: fermentation beer pH 6.5, room temperature, 248 hours, HPLC peak area relative to starting amount
# Description: To determine the stability of the new mutants, Av3bM19, Av3bM23, Av3bM24, Av3bM25, Av3bM27, and Av3bM28 were purified and incubated in Av3b fermentation beer. The mutants were purified by cation-exchange chromatography using a GE SP-Sephadex C-25 column. The column was first calibrated with 30 mM sodium citrate buffer at pH 3.0. Then, the culture supernatant containing the secreted mutant peptide was loaded into the column to let the mutant peptide bind to the resin. The column was then washed with 30 mM sodium citrate buffer, pH 3.0, followed by washing with 30 mM sodium acetate, pH 4.0. Next, the bound mutant peptide was eluted by 1 M or 2 M NaCl with 30 mM sodium acetate, pH 4.0. The elution was then concentrated and buffer-exchanged to 30 mM sodium acetate, pH 4.0 using a 1 kD cutoff spin concentrator.
# After purification, each of the mutants, Av3bM19, Av3bM23, Av3bM24, Av3bM25, Av3bM27, and Av3bM28, were evaluated for stability by spiking them into Av3b strain fermentation beer at pH 6.5. As a negative control, Av3b was evaluated in a pH 4.0 buffer. As a positive control, purified Av3b was evaluated by spiking into the same Av3b fermentation beer at pH 6.5. All stability experiments were performed at room temperature. […] The amount of peptide remaining relative to the beginning was determined by normalizing the peak area at different time to the one at 0 hour for each treatment. The degradation trend is visualized by the bar graph of the relative remaining peptide amount trend.
# [5] = Circular dichroism assay, melting temperature; format: physicochemical; conditions: 10 mM Na3PO4 solution, pH 5.9; 20° C. to 98° C.
# Description: A JASCO J-1500 CD spectrometer (JASCO, 28600 Mary's Court, Easton, MD 21601 USA) was used to measure the CD spectrum and the secondary structure information of the Av3bM24, Av3bM165, Av3bM103, and Av3bM170 peptides (with Av3b as a comparator). The peptides were prepared in 10 mM Na3PO4 solution, pH 5.9, and loaded into the cuvette for CD spectrum measurement. Measurements were processed with a light wavelength scan ranging from 180 nm to 250 nm, with a 1 nm interval; the temperature graduate changed from 20° C. to 98° C., with 2° C. interval.
# Spodoptera frugiperda = experiment: Lepidoptera injection assay, fall armyworm (FAW); format: in vivo; conditions: third instar larva, 2 μL injection, scored at 24-hours post-injection
# Description: as §1, §2, §3, §4
# houseflies = experiment: Housefly injection assay (knock-down); format: in vivo, Musca domestica
# Description: An exemplary housefly injection bioassay is as follows: conditioned media is serially diluted to generate full dose-response curves from the housefly injection bioassay. Before injection, adult houseflies (Musca domestica) are immobilized with CO2, and 12-18 mg houseflies are selected for injection. A microapplicator, loaded with a 1 cc syringe and 30-gauge needle, is used to inject 0.5 μL per fly, doses of serially diluted conditioned media samples into houseflies through the body wall of the dorsal thorax. The injected houseflies are placed into closed containers with moist filter paper and breathing holes on the lids, and they are examined by knock-down ratio or by mortality scoring at 24 hours post-injection. Normalized yields are calculated. Peptide yield means the peptide concentration in the conditioned media in units of mg/L. However, peptide yields are not always sufficient to accurately compare the strain production rate. […] A culture with a high cell density may produce a higher concentration of the peptide in the media, even though the peptide production rate of the strain is lower than another strain which has a higher production rate. Accordingly, the term “normalized yield” is created by dividing the peptide yield with the cell density in the corresponding culture and this allows a better comparison of the peptide production rate between strains. The cell density is represented by the light absorbance at 600 nm with a unit of “A” (Absorbance unit).
# A housefly injection assay was performed to determine the activity of the new mutants. Adult houseflies were immobilized with CO2 for 10 minutes, and then transferred to a CO2 pan to keep immobilized. Flies with weight between 12-20 mg were picked for injection. The new mutants and Av3b control were diluted in water to proper doses for injection. Next, a 0.5 μL peptide solution was injected into each housefly at the dorsal thorax using a hand-microapplicator with 1 cc all-glass syringe with 30 gauge straight needle. The injected flies were then transferred to a 2 oz. transparent portion container with a wet #4 filter paper. Fly knock-down was assessed at 5-hours post-injection. The activity of a given new mutant was then normalized to the activity of the Av3b production strain (control), using the fly knock-down score at 5 hours.
# [6] = Av3b production fermentation beer pH 6.5, room temperature (Example 11, FIG. 37)
Sequence,degradation detected via HPLC and LC/MS [1],KD50 CEW (Helicoverpa zea),peptide change on day 14 [2],thermo-stability at 54° C. [2],degradation product during fermentation (HPLC) [3],"half-degradation time [4, 6]","half-degradation time ([4]; Av3b production fermentation beer pH 6.5, room temperature (Example 12, FIG. 39))",peptide remaining [4] [%],"stability of peptide in pH 4 buffer (negative control) ([4]; pH 4 buffer, room temperature)",CD Melting temperature [5] [°C],KD50 FAW (Spodoptera frugiperda),"resistance to fermentation beer protease cleavage compared to Av3b ([4]; spiked into Av3b fermentation beer pH 6.5, room temperature)",housefly knock-down / insecticidal activity relative to Av3b (houseflies; knock-down at 5 hours post-injection),"Activity (houseflies; knock-down at 5 hours post-injection normalized to Av3b, Yes = insecticidal activity maintained)","knock-down effects compared to Av3b (Helicoverpa zea; CEW and FAW injection, KD50)","time stable in solution at 54° C. ([2]; pH 4 NaOAc buffer, 54° C.) [days]",Degradation? [3]
"KSCCPCYWGGCPWGQNCYPEGCSGPK [Av3b, reference compound]",degradation was detected,367 ± 166 (N = 6) pmol/g,+8.3%,thermo-stable,showed degradation during fermentation,46 h and 46.34 h,56 h and 56.087 h,3.8,no loss of the peptide; also recorded: stable in pH 4 buffer,69.3,883 ± 25 (N = 2) pmol/g,,,,,,
KSCCPCYWGGCPWGQDCYPDGCDGPK (Av3bM19; VARIANT (1)..(26) Recombinant variant of Anemonia viridis Av3 peptide),,,,,,666 h,,95,,,,greater resistance to yeast fermentation beer protease cleavage; also recorded: improved resistance to fermentation beer cleavage; also recorded: resist the degradation in Av3b fermentation beer,without a concomitant reduction in housefly knock-down activity; also recorded: insecticidal activity,Yes,,,
KSCCPCYWGGCPWGQNCYPEGCSGPG (ends and bridges not checked; cysteine pairing not given here) [Av3bM103],degradation was not detected,518 ± 390 (N = 2) pmol/g,−64.1%,not thermo-stable,did not show any degradation product; also recorded: prevent degradation,,,,,82,879 pmol/g,,,,comparable knock-down effects to Av3b,7,No
KSCCPCYWGGCPWGQNCYPEGCGGPG [Av3bM170],degradation was not detected,104 pmol/g,+4.6%,thermo-stable,did not show any degradation product,,,,,70,495±148 pmol/g and 495 ± 148 (N = 2) pmol/g,,,,,,No
